First the molecules themselves.
B1: MtThiS-COSH (thiocarboxylated ThiS from Methanothermobacter sp. CaT2) (natural protein)
chain: MVIGMKFTVITDDGKKILESGAPRRIKDVLGELEIPIETVVVKKNGEIVIEEEEIFDGDIIEVIRVIYGG-{COSH}
B2: MtTfuA-E67A (enzyme)
chain: MHGKKIIIFTGPSLSHTEASSILEAEYRPPVRRGDIQEAMKENPDIIGIIDGVFHQSPAVGHRAIIDAIRRGVKVVGGASMGALRASELSDLGMVGVGRIFRSYLEGEIESDDDVAVAFNPETLEPLSDSLVSIEFNLKRALRRGVIREDDFRKLMNTARNLFYPLRNYRRILHESGIPDDVKESLRSFLESEGRDLKREDALEVIRHIKRLAYTE
B3: MtTfuA-Y107A (enzyme)
chain: MHGKKIIIFTGPSLSHTEASSILEAEYRPPVRRGDIQEAMKENPDIIGIIDGVFHQSPAVGHREIIDAIRRGVKVVGGASMGALRASELSDLGMVGVGRIFRSALEGEIESDDDVAVAFNPETLEPLSDSLVSIEFNLKRALRRGVIREDDFRKLMNTARNLFYPLRNYRRILHESGIPDDVKESLRSFLESEGRDLKREDALEVIRHIKRLAYTE
B4: MtTfuA-L87A (enzyme)
chain: MHGKKIIIFTGPSLSHTEASSILEAEYRPPVRRGDIQEAMKENPDIIGIIDGVFHQSPAVGHREIIDAIRRGVKVVGGASMGAARASELSDLGMVGVGRIFRSYLEGEIESDDDVAVAFNPETLEPLSDSLVSIEFNLKRALRRGVIREDDFRKLMNTARNLFYPLRNYRRILHESGIPDDVKESLRSFLESEGRDLKREDALEVIRHIKRLAYTE
B5: MtTfuA-R206A (enzyme)
chain: MHGKKIIIFTGPSLSHTEASSILEAEYRPPVRRGDIQEAMKENPDIIGIIDGVFHQSPAVGHREIIDAIRRGVKVVGGASMGALRASELSDLGMVGVGRIFRSYLEGEIESDDDVAVAFNPETLEPLSDSLVSIEFNLKRALRRGVIREDDFRKLMNTARNLFYPLRNYRRILHESGIPDDVKESLRSFLESEGRDLKAEDALEVIRHIKRLAYTE
B6: MtTfuA-R170A (enzyme)
chain: MHGKKIIIFTGPSLSHTEASSILEAEYRPPVRRGDIQEAMKENPDIIGIIDGVFHQSPAVGHREIIDAIRRGVKVVGGASMGALRASELSDLGMVGVGRIFRSYLEGEIESDDDVAVAFNPETLEPLSDSLVSIEFNLKRALRRGVIREDDFRKLMNTARNLFYPLANYRRILHESGIPDDVKESLRSFLESEGRDLKREDALEVIRHIKRLAYTE
B7: MtTfuA-V118A (enzyme)
chain: MHGKKIIIFTGPSLSHTEASSILEAEYRPPVRRGDIQEAMKENPDIIGIIDGVFHQSPAVGHREIIDAIRRGVKVVGGASMGALRASELSDLGMVGVGRIFRSYLEGEIESDDDAAVAFNPETLEPLSDSLVSIEFNLKRALRRGVIREDDFRKLMNTARNLFYPLRNYRRILHESGIPDDVKESLRSFLESEGRDLKREDALEVIRHIKRLAYTE
B8: MtTfuA-M84A (enzyme)
chain: MHGKKIIIFTGPSLSHTEASSILEAEYRPPVRRGDIQEAMKENPDIIGIIDGVFHQSPAVGHREIIDAIRRGVKVVGGASAGALRASELSDLGMVGVGRIFRSYLEGEIESDDDVAVAFNPETLEPLSDSLVSIEFNLKRALRRGVIREDDFRKLMNTARNLFYPLRNYRRILHESGIPDDVKESLRSFLESEGRDLKREDALEVIRHIKRLAYTE
B9: MtTfuA-D208N (enzyme)
chain: MHGKKIIIFTGPSLSHTEASSILEAEYRPPVRRGDIQEAMKENPDIIGIIDGVFHQSPAVGHREIIDAIRRGVKVVGGASMGALRASELSDLGMVGVGRIFRSYLEGEIESDDDVAVAFNPETLEPLSDSLVSIEFNLKRALRRGVIREDDFRKLMNTARNLFYPLRNYRRILHESGIPDDVKESLRSFLESEGRDLKRENALEVIRHIKRLAYTE
B10: MtTfuA-H65A (enzyme)
chain: MHGKKIIIFTGPSLSHTEASSILEAEYRPPVRRGDIQEAMKENPDIIGIIDGVFHQSPAVGAREIIDAIRRGVKVVGGASMGALRASELSDLGMVGVGRIFRSYLEGEIESDDDVAVAFNPETLEPLSDSLVSIEFNLKRALRRGVIREDDFRKLMNTARNLFYPLRNYRRILHESGIPDDVKESLRSFLESEGRDLKREDALEVIRHIKRLAYTE
B11: MtTfuA-F57A (enzyme)
chain: MHGKKIIIFTGPSLSHTEASSILEAEYRPPVRRGDIQEAMKENPDIIGIIDGVAHQSPAVGHREIIDAIRRGVKVVGGASMGALRASELSDLGMVGVGRIFRSYLEGEIESDDDVAVAFNPETLEPLSDSLVSIEFNLKRALRRGVIREDDFRKLMNTARNLFYPLRNYRRILHESGIPDDVKESLRSFLESEGRDLKREDALEVIRHIKRLAYTE
B12: MtTfuA-R88A (enzyme)
chain: MHGKKIIIFTGPSLSHTEASSILEAEYRPPVRRGDIQEAMKENPDIIGIIDGVFHQSPAVGHREIIDAIRRGVKVVGGASMGALAASELSDLGMVGVGRIFRSYLEGEIESDDDVAVAFNPETLEPLSDSLVSIEFNLKRALRRGVIREDDFRKLMNTARNLFYPLRNYRRILHESGIPDDVKESLRSFLESEGRDLKREDALEVIRHIKRLAYTE
B13: MtTfuA-S16A (enzyme)
chain: MHGKKIIIFTGPALSHTEASSILEAEYRPPVRRGDIQEAMKENPDIIGIIDGVFHQSPAVGHREIIDAIRRGVKVVGGASMGALRASELSDLGMVGVGRIFRSYLEGEIESDDDVAVAFNPETLEPLSDSLVSIEFNLKRALRRGVIREDDFRKLMNTARNLFYPLRNYRRILHESGIPDDVKESLRSFLESEGRDLKREDALEVIRHIKRLAYTE
B14: MtTfuA-E91Q (enzyme)
chain: MHGKKIIIFTGPSLSHTEASSILEAEYRPPVRRGDIQEAMKENPDIIGIIDGVFHQSPAVGHREIIDAIRRGVKVVGGASMGALRASQLSDLGMVGVGRIFRSYLEGEIESDDDVAVAFNPETLEPLSDSLVSIEFNLKRALRRGVIREDDFRKLMNTARNLFYPLRNYRRILHESGIPDDVKESLRSFLESEGRDLKREDALEVIRHIKRLAYTE
B15: MtTfuA-D203A (enzyme)
chain: MHGKKIIIFTGPSLSHTEASSILEAEYRPPVRRGDIQEAMKENPDIIGIIDGVFHQSPAVGHREIIDAIRRGVKVVGGASMGALRASELSDLGMVGVGRIFRSYLEGEIESDDDVAVAFNPETLEPLSDSLVSIEFNLKRALRRGVIREDDFRKLMNTARNLFYPLRNYRRILHESGIPDDVKESLRSFLESEGRALKREDALEVIRHIKRLAYTE
B16: MtTfuA-D115A (enzyme)
chain: MHGKKIIIFTGPSLSHTEASSILEAEYRPPVRRGDIQEAMKENPDIIGIIDGVFHQSPAVGHREIIDAIRRGVKVVGGASMGALRASELSDLGMVGVGRIFRSYLEGEIESADDVAVAFNPETLEPLSDSLVSIEFNLKRALRRGVIREDDFRKLMNTARNLFYPLRNYRRILHESGIPDDVKESLRSFLESEGRDLKREDALEVIRHIKRLAYTE
B17: MtTfuA-S83A (enzyme)
chain: MHGKKIIIFTGPSLSHTEASSILEAEYRPPVRRGDIQEAMKENPDIIGIIDGVFHQSPAVGHREIIDAIRRGVKVVGGAAMGALRASELSDLGMVGVGRIFRSYLEGEIESDDDVAVAFNPETLEPLSDSLVSIEFNLKRALRRGVIREDDFRKLMNTARNLFYPLRNYRRILHESGIPDDVKESLRSFLESEGRDLKREDALEVIRHIKRLAYTE
B18: MtTfuA-D54A (enzyme)
chain: MHGKKIIIFTGPSLSHTEASSILEAEYRPPVRRGDIQEAMKENPDIIGIIAGVFHQSPAVGHREIIDAIRRGVKVVGGASMGALRASELSDLGMVGVGRIFRSYLEGEIESDDDVAVAFNPETLEPLSDSLVSIEFNLKRALRRGVIREDDFRKLMNTARNLFYPLRNYRRILHESGIPDDVKESLRSFLESEGRDLKREDALEVIRHIKRLAYTE
B19: MtTfuA-E91D (enzyme)
chain: MHGKKIIIFTGPSLSHTEASSILEAEYRPPVRRGDIQEAMKENPDIIGIIDGVFHQSPAVGHREIIDAIRRGVKVVGGASMGALRASDLSDLGMVGVGRIFRSYLEGEIESDDDVAVAFNPETLEPLSDSLVSIEFNLKRALRRGVIREDDFRKLMNTARNLFYPLRNYRRILHESGIPDDVKESLRSFLESEGRDLKREDALEVIRHIKRLAYTE
B20: MtTfuA-K205M (enzyme)
chain: MHGKKIIIFTGPSLSHTEASSILEAEYRPPVRRGDIQEAMKENPDIIGIIDGVFHQSPAVGHREIIDAIRRGVKVVGGASMGALRASELSDLGMVGVGRIFRSYLEGEIESDDDVAVAFNPETLEPLSDSLVSIEFNLKRALRRGVIREDDFRKLMNTARNLFYPLRNYRRILHESGIPDDVKESLRSFLESEGRDLMREDALEVIRHIKRLAYTE

*: point of attachment. COSH = C-terminal thiocarboxylate, S*

The first data set concerns the molecule itself. The data set is described as follows: native MS.
The term stoichiometry N denotes a count of units in the complex or per binding partner. B1: the “stoichiometry N” value stood at 2.

A further data set concerns the target MtYcaO (YcaO from Methanothermobacter sp. CaT2), MBP-His tag cut in the assay mixture (Methanothermobacter sp. CaT2). The data set is described as follows: fluorescence polarisation. In general terms: In fluorescence polarisation assays a small probe gives low polarisation when free and higher when bound to something large.
Usually EC50 stands for the midpoint of the concentration-response curve. With B2, the EC50 came to 4.9 µM.

With B3, the EC50 is more than 30 µM.

As for B4, the EC50 is more than 30 µM.

Regarding B5, the EC50 was 3.1 µM.

With B6, the concentration for a half-maximal effect (EC50) was more than 30 µM.

Turning to B7, the EC50 is more than 30 µM.

Take B8: the half-maximal effective concentration (EC50) was determined as 3.2 µM.

With B9, the concentration for a half-maximal effect (EC50) stood at 3.9 µM.

In the case of B10, the EC50 was more than 30 µM.

Take B11: the half-maximal effective concentration (EC50) is 3.8 µM.

With B12, the 50% effective concentration (EC50) was more than 30 µM.

Turning to B13, the EC50 worked out at 5.4 µM.

Consider B14, for which the half-maximal effective concentration (EC50) was more than 30 µM.

Take B15: the EC50 came out at 2.9 µM.

As for B16, the EC50 was more than 30 µM.

B17: the EC50 turned out to be 4.1 µM.

B18: the EC50 was more than 30 µM.

Consider B19, for which the EC50 turned out to be 2.1 µM.

For the molecule B20, the EC50 came out at 1.1 µM.

The values are drawn from paper PMC8084935 (Nature chemical biology, 2021).
